These results are taken from the supplement of paper PMC9170038.

This data set relates to MS2 coat protein. In words: apparent KD of MS2 coat protein; designed switch direction (-1 OFF switch, 1 ON switch): -1; higher = weaker reporter binding. The essentials:
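Designed RNA switches sharing common flanks were transcribed on Illumina chips by stalled E. coli RNA polymerase. They were titrated with SNAP-549-labelled MS2 coat protein, from 0.7 or 1.5 nM doubling to 3 µM, in Tris-HCl pH 7.5 buffer with KCl, MgCl2, BSA, DTT, tRNA and Tween-20. Titrations ran without input, with 200 uM small-molecule ligand, or with an oligonucleotide input. The apparent KD of each design is the median over its clusters, after curve-fitting of normalised cluster fluorescence.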

Setting [1] is: input ligand: microRNA oligo, concentration not stated.
Where [2] appears, read: Eterna round: R95, input ligand: microRNA oligo, concentration not stated.
Where [3] appears, read: Eterna round: R95, input ligand: FMN 200 uM.
[4] abbreviates: Eterna round: R95, input ligand: none.

For the sequence “CCGUAACAUGAGGAUCACCCAUGUCAGGAUAUUCCAAAAUCGUCGAAAGACGAUAACAGAAGAAGGGACAGUGG [Fiskxlusion 5 - Jieux - Exclusion 1] (Eterna round: R97, puzzle: Exclusion 1)”, the “apparent KD of MS2 coat protein” value (input ligand: FMN 200 uM) stood at 104 nM and the “apparent KD of MS2 coat protein” value (input ligand: none) came out at 111 nM.
The matching figures for “CCGUGCACGCUCCGGUCCUACAUGAGGAUCACCCAUGUGGUCCGGUGGCGUGGGUCGCCGGACUUGGCUCGUCUUGU [salish99_S_TOV1_R5_018] (Eterna round: R97, puzzle: Sensor, turn-off variant 1)”: 16.3 nM and 17.4 nM.
The matching figures for “CCGUGGUUAGGAUAUUCGAAUGAGCACAUGAGGAUCACCCAUGUCUGAAUUGACAGCCGAGAAGAAGGAACCACUC [Eternabot (L2) Solution 24] (Eterna round: R97, puzzle: Exclusion 5)”: 29.5 nM and 23.3 nM.
Take “CCUAGUUGGUAAGGAUAUCCUACACUAUUCUGACCCGUGCAAGCUACAUGAGGAUCACCCAUGUGGGAGAAGGUGCGUCAACGU [Design 10] (Eterna round: R96, puzzle: Exclusion NG 2)”: the “apparent KD of MS2 coat protein” value is 21.3 nM (input ligand: FMN 200 uM), 18.2 nM under setting [1] and 23.8 nM (input ligand: none).
On to “CCUAUGUUAGGAUAUCGGCAUCCCGGGCAGGUAGCCAGGACCGAGAAGGGACAUGAGGAUCACCCAUGUCAAAU [Eternabot (Original) Solution 4] (Eterna round: R97, puzzle: Exclusion 4)”, for which the “apparent KD of MS2 coat protein” value reads like this: (input ligand: FMN 200 uM) 15.9 nM; (input ligand: none) 19.1 nM.
In the case of “CCUCAGUGAGGAUAUGGUAGACACAAUCGGGAUUGAGAAGGCCAGAAGGUACAUGAGGAUCACCCAUGUAAUCA [Eternabot (L2) Solution 58] (Eterna round: R97, puzzle: Exclusion 4)”, the “apparent KD of MS2 coat protein” value was 27.2 nM (input ligand: FMN 200 uM) and 21.9 nM (input ligand: none).
As for “CCUCAUAUUUAGGAUAUGAUUGGUAAUUAUUAGUUAGAAGGAGGUACAUGAGGAUCACCCAUGUAAAAUUUUUU [-13.7, -10.8 kcal, 32% A] (Eterna round: R97, puzzle: Exclusion 6)”, the “apparent KD of MS2 coat protein” value is, setting by setting: (input ligand: FMN 200 uM) 19.7 nM; (input ligand: none) 19.6 nM.
On to “CCUCCACAUGAGGAUCACCCAUGUCAGGAUAUCGUGUGUUUUUUUUCGGUCUUGCGUGCGAGAAGGGACGUCUU (puzzle: Exclusion 1)”, for which, under setting [2], the “apparent KD of MS2 coat protein” value came to 32.5 nM.
Take “CCUCCCUGAGGAUAUCCACCCUCAUACAUGAGGAUCACCCAUGUUCAACCCUGGGUUCCCGGAGAAGGCAGUUUCC [Megrez-2.4] (Eterna round: R97, puzzle: Exclusion 5)”: the “apparent KD of MS2 coat protein” value is, setting by setting: (input ligand: FMN 200 uM) 226 nM; (input ligand: none) 235 nM.
On to “CCUCGACAUGAGGAUCACCCAUGUCAGGAUAUUGUGUUUUGGGUUUUUUACCUUUUGGCAAGAAGGGAUGUGUG [LRO-Excl1-19] (puzzle: Exclusion 1)”, for which, under setting [2], the “apparent KD of MS2 coat protein” value worked out at 14.4 nM.
As for “CCUCUACAUGAGGAUCACCCAUGUGAGGAUAUCAAAAUCAGGGCGGCUCCCUGACCCAUGAGAAGGUGCAUGGA [EX1 A.5] (Eterna round: R97, puzzle: Exclusion 1)”, the “apparent KD of MS2 coat protein” value (input ligand: FMN 200 uM) turned out to be 31 nM and the “apparent KD of MS2 coat protein” value (input ligand: none) came to 16.8 nM.
Turning to “CCUCUACAUGAGGAUCACCCAUGUUAGGAUAUGCCGGCCGACCUCGGGUGUGUAAUACGCAGAAGGAACGUUAC [Eternabot (Original) Solution 49] (Eterna round: R97, puzzle: Exclusion 1)”, the “apparent KD of MS2 coat protein” value turned out to be 835 nM (input ligand: FMN 200 uM) and 2390 nM (input ligand: none).
With “CCUUAGUCACAGGAUAUGCUCAUCUAAUGAUGAGCAGAAGGGUGAACAUGAGGAUCACCCAUGUUUAUCAAGGG [Omei Ex6 E3] (Eterna round: R97, puzzle: Exclusion 6)”, the “apparent KD of MS2 coat protein” value (input ligand: FMN 200 uM) worked out at 300 nM and the “apparent KD of MS2 coat protein” value (input ligand: none) stood at 274 nM.
“CCUUUGUCAGGAUAUCAGAACGCGCUCGAAAGGAACGCAAAUGAGAAGGGACAUGAGGAUCACCCAUGUAAAGA [Enenrixe] (puzzle: Exclusion 4)”: the “apparent KD of MS2 coat protein” value runs as follows: under setting [3], 158 nM; under setting [2], 42.8 nM; under setting [4], 45 nM.
“CCUUUGUCAGGAUAUCGUGCAUACAACGAAAGUUCUAUGUGCGAGAAGGGACAUGAGGAUCACCCAUGUUACGG [Omei Ex4 A3] (Eterna round: R97, puzzle: Exclusion 4)”: the “apparent KD of MS2 coat protein” value is 172 nM (input ligand: FMN 200 uM) and 368 nM (input ligand: none).
The matching figures for “CGAAUUCGUUAGGAUAUGAGGCAGAGGUCCGCCUCAGAAGGAAUGACAUGAGGAUCACCCAUGUAGACCCAAGG [Eternabot (Original) Solution 1] (Eterna round: R97, puzzle: Exclusion 6)”: 18.9 nM and 19.1 nM.
On to “CGAGCUCAUGUGAGGAUAUACCUAUGGAUACAUAGGUAGAAGGCACAUGAGGAUCACCCAUGUCCUUGAGCUCG [jl-bmx4-4.59 Eli mod] (Eterna round: R97, puzzle: Brourd's mod of Exclusion 4)”, for which the “apparent KD of MS2 coat protein” value was 309 nM (input ligand: FMN 200 uM) and 50.4 nM (input ligand: none).
Take “CGAGCUGCUGUGAGGAUAUACCUGUGGGUGCGUGGGUAGAAGGCACAUGAGGAUCACCCAUGUCCUGCAGCUCG [salish99_bmx4_r4_105] (Eterna round: R97, puzzle: Brourd's mod of Exclusion 4)”: the “apparent KD of MS2 coat protein” value was 594 nM (input ligand: FMN 200 uM) and 1060 nM (input ligand: none).
The corresponding values for “CGAUGAGGAGUGAGGAUAUCGUGUUCGAAAGAACGUGAGAAGGCACAUGAGGAUCACCCAUGUGAACCUUGUCG [Omei Ex4B A10] (Eterna round: R97, puzzle: Brourd's mod of Exclusion 4)” are 22.5 nM and 15.8 nM.
Take “CGAUGUUAUGUCAGGAUAUACAUUGCGAAAGCAAUGUAGAAGGGACAUGAGGAUCACCCAUGUCCUAACCAUCG [Omei A 3] (puzzle: Brourd's mod of Exclusion 4)”: the “apparent KD of MS2 coat protein” value under setting [2] was determined as 12.7 nM.
“CGCGACUCAGGAUAUACAUGAGGAUCACCCAUGUGGAACGACUGGGUCGAUAAAAGGUGUAGAAGGGAGGAAAA [Invebies] (puzzle: Exclusion 3)”: the “apparent KD of MS2 coat protein” value runs as follows: under setting [3], 15.4 nM; under setting [2], 12.6 nM; under setting [4], 15.4 nM.
“CGCGCCUGGGUCGAACGACACAUGAGGAUCACCCAUGUCAGAGGCGUAGAAUGCACAAGCUUUGACCUCGUUACGCU [Eternabot (L2) Solution 39] (Eterna round: R97, puzzle: Sensor, turn-off variant 1)”: the “apparent KD of MS2 coat protein” value is, setting by setting: (input ligand: FMN 200 uM) 18 nM; (input ligand: none) 18.5 nM.
Take “CGCGCCUUUGUCAGGAUAUUCGGACGAGCCCGGCCGGAGAAGGGACUUGAGGAUCACCCAAGUGACGCGAAGAC [Anrearra] (Eterna round: R97, puzzle: Brourd's mod of Exclusion 4)”: the “apparent KD of MS2 coat protein” value stood at 35.1 nM (input ligand: FMN 200 uM) and 31.9 nM (input ligand: none).
The corresponding values for “CGCUGGACAGGAUAUGUUCUUGGGCACUUGAGGAUCACCCAAGUCAUCGGGACAUCAGGCACAGAAGGGUUGUUGG [salish99_ex5_r4_028] (Eterna round: R97, puzzle: Exclusion 5)” are 25.5 nM and 27.1 nM.
Turning to “CGGCAUGUCUGAGGAUAUCUGCACGUUUAGUGCAGAGAAGGCAGAACAUGAGGAUCACCCAUGUAGAUCAUUAACCGAUUAAUU [ENG1/7-A2] (Eterna round: R96, puzzle: Exclusion NG 1)”, the “apparent KD of MS2 coat protein” value under setting [1] came out at 182 nM.
In the case of “CGGCGACAUGAGGAUCACCCAUGUGAGGAUAUGACGGGAAAAGCGUGAGCAGUUUGUGGCAGAAGGCGCGUAGG [salish99_ex1_r4_083] (Eterna round: R97, puzzle: Exclusion 1)”, the “apparent KD of MS2 coat protein” value (input ligand: FMN 200 uM) is 23.5 nM and the “apparent KD of MS2 coat protein” value (input ligand: none) amounted to 117 nM.
Turning to “CGGGCAUGAGGAUAUCGAGGUUAGUACAUGAGGAUCACCCAUGUUAUCCAGGUGUCGGUUCGAGAAGGCAUGGCCG [LRO-Ex5-11] (puzzle: Exclusion 5)”, the “apparent KD of MS2 coat protein” value is, setting by setting: under setting [3], 464 nM; under setting [2], 230 nM; under setting [4], 340 nM.
“CGGGCCGGCCUUCCGGCCGGCCCGACAUGAGGAUCACCCAUGUAGGAUAUCCCGGCUGCCGGCCGGGAGAAGGGCGUGCGCUUU [-47.6, -45.1 kcal, 14% A] (Eterna round: R96, puzzle: Exclusion NG 3)”: the “apparent KD of MS2 coat protein” value is, setting by setting: (input ligand: FMN 200 uM) 36.5 nM; under setting [1], 20.8 nM; (input ligand: none) 36.5 nM.
Turning to “CGGUAAAUAGGAUAUACAUGAGGAUCACCCAUGUUCCAUAGCACUCGGAGGGUUCCCAGUAGAAGGGUUGGCCU [EX3 C.17] (Eterna round: R97, puzzle: Exclusion 3)”, the “apparent KD of MS2 coat protein” value is, setting by setting: (input ligand: FMN 200 uM) 16 nM; (input ligand: none) 19.4 nM.
For the sequence “CGGUACUGAGGAUAUACAUGAGGAUCACCCAUGUGUACUAGCUAGCGUACUGGCAUUAGUAGAAGGCGGUGCUG [JL-ex3-3.20 Brourd mod] (puzzle: Exclusion 3)”, the “apparent KD of MS2 coat protein” value runs as follows: under setting [3], 19.8 nM; under setting [2], 11.5 nM; under setting [4], 13.2 nM.
Take “CGGUGACAUGAGGAUCACCCAUGUCAGGAUAUCCAGGUCGACAAUGAGCUGUACGAUUGGAGAAGGGAUACGGG [EX1 C.9] (Eterna round: R97, puzzle: Exclusion 1)”: the “apparent KD of MS2 coat protein” value was found to be 20.6 nM (input ligand: FMN 200 uM) and 23.7 nM (input ligand: none).
Regarding “CGGUGCUCGUGGAAACAUGAGGAUCACCCAUGUAGAGUUAGCGAGGAUAUCGGUAACACACAUCACGAGAAGGCGCGAACCUGU [Ex NG3 #6] (Eterna round: R96, puzzle: Exclusion NG 3)”, the “apparent KD of MS2 coat protein” value was 31.7 nM (input ligand: FMN 200 uM), 12.1 nM under setting [1] and 20.8 nM (input ligand: none).
